Laboratory results from publication PMC6555636.

What was measured:
[1] = molecular target: EXP2 (P. falciparum (endogenous in strain NF54attB)); experiment: cryo-EM structure
[2] = molecular target: PTEX150 (P. falciparum (endogenous in strain NF54attB)); experiment: cryo-EM structure

Substance	stoichiometry N [1]	stoichiometry N [2]
EXP2 (natural protein)	7	–
PTEX150 (natural protein)	–	7
